Data on 2 molecules can be found in PMC8718839 (iScience, 2021).

A word on the Kd: it is a measure of binding affinity in units of concentration.

Data set [1] concerns the target T1, ActRIIB-Alk4-Fc (human, UniProt Q13705;P36896).
T1 sequence 1: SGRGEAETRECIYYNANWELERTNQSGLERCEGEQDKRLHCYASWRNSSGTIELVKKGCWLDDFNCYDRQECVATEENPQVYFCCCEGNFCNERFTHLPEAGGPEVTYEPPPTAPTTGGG
T1 sequence 2: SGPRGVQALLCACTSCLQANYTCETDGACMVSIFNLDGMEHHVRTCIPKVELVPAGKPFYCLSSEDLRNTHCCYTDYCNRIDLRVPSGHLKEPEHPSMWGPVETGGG
In words: SPR. Background: Surface plasmon resonance follows binding to a sensor surface in real time, without labels.

Data set [2] concerns the target T2, (ActRIIB)2-Fc (UniProt Q13705-1 19-137).
T2 sequence: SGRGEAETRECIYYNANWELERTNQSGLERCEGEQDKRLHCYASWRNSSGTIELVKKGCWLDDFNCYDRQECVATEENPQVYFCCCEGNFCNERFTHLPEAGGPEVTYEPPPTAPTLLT
Description: SPR.

The target of data set [3] is T3, ActRIIB-Fc (UniProt Q13705 19-137).
T3 sequence: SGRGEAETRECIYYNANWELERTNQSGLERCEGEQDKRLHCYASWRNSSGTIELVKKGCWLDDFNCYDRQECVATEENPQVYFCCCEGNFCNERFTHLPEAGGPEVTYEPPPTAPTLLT
Description: SPR.

Data set [4] deals with the molecule itself. Description: crystal structure.

B1: GDF11 mature (ligand)
chain: NLGLDCDEHSSESRCCRYPLTVDFEAFGWDWIIAPKRYKANYCSGQCEYMFMQKYPHTHLVQQANPRGSAGPCCTPTKMSPINMLYFNDKQQIIYGKIPGMVVDRCGCS
In the case of B1, the Kd in data set [1] amounted to 0.00424 nM; in data set [2] it was 0.00191 nM; in data set [3], 0.0147 nM. For the same molecule, the binding result in data set [4] was “binds”.

B2: Activin A mature (ligand)
chain: GLECDGKVNICCKKQFFVSFKDIGWNDWIIAPSGYHANYCEGECPSHIAGTSGSSLSFHSTVINHYRMRGHSPFANLKSCCVPTKLRPMSMLYYDDGQNIIKKDIQNMIVEECGCS
Consider B2, for which the results for the Kd in data set [1], in data set [2] and in data set [3] were 0.0304 nM, 0.0125 nM and 0.108 nM, respectively. In addition, the binding result in data set [4] is on record as “binds”.
